Results on two sequences are retold here after the Immune Epitope Database (IEDB).

Assay in all cases: IEDB peptide-MHC binding, purified MHC/competitive/fluorescence; filed as Kd, often an IC50 or EC50 that approximates it; ≥ and ≤ were set here for values at or beyond the usual limits of such assays
The target in experiment [1] is HLA-B*46:01.
Experiment [2] concerns the target HLA-A*26:01.
Experiment [3] addresses HLA-B*57:01.
Experiment [4] concerns the target HLA-A*29:02.
The target of experiment [5] is HLA-B*51:01.
The target in experiment [6] is HLA-A*02:12. The following applies: source organism: Escherichia coli O157:H7 str. Sakai.
Experiment [7] addresses HLA-A*69:01. The following applies: source organism: Escherichia coli O157:H7 str. Sakai.
Experiment [8] deals with HLA-A*02:03. The following applies: source organism: Escherichia coli O157:H7 str. Sakai.
Experiment [9] concerns the target HLA-A*23:01.
Experiment [10] addresses HLA-A*02:01.
Experiment [11] has as its target HLA-A*02:11. The following applies: source organism: Escherichia coli O157:H7 str. Sakai.
Experiment [12] addresses HLA-A*68:02.
Experiment [13] has as its target HLA-A*80:01. The conditions noted are these: source organism: Escherichia coli O157:H7 str. Sakai.
Experiment [14] has as its target HLA-A*24:03.
Experiment [15] has as its target HLA-B*39:01.
In experiment [16] the target is HLA-A*02:19.
For experiment [17], the target named is HLA-A*02:16. The conditions noted are these: source organism: Escherichia coli O157:H7 str. Sakai.
The target in experiment [18] is HLA-A*30:02. The following applies: source organism: Entamoeba histolytica HM-1:IMSS.
Experiment [19] has as its target HLA-B*58:01. The following applies: source organism: Entamoeba histolytica HM-1:IMSS.
Experiment [20] addresses HLA-B*27:03. The conditions noted are these: source organism: Entamoeba histolytica HM-1:IMSS.
The target of experiment [21] is HLA-A*66:01. The following applies: source organism: Entamoeba histolytica HM-1:IMSS.
Experiment [22] addresses HLA-B*15:17. The conditions noted are these: source organism: Entamoeba histolytica HM-1:IMSS.
In experiment [23] the target is HLA-B*18:01. The following applies: source organism: Entamoeba histolytica HM-1:IMSS.
Experiment [24] concerns the target HLA-A*01:01. The conditions noted are these: source organism: Entamoeba histolytica HM-1:IMSS.
The target in experiment [25] is HLA-B*15:01. The conditions noted are these: source organism: Entamoeba histolytica HM-1:IMSS.
The target in experiment [26] is HLA-B*53:01. The conditions noted are these: source organism: Entamoeba histolytica HM-1:IMSS.
Experiment [27] has as its target HLA-A*30:01. The following applies: source organism: Entamoeba histolytica HM-1:IMSS.
For experiment [28], the target named is HLA-A*11:01. The conditions noted are these: source organism: Entamoeba histolytica HM-1:IMSS.
The target of experiment [29] is HLA-B*14:02. The following applies: source organism: Entamoeba histolytica HM-1:IMSS.
Experiment [30] concerns the target HLA-B*27:05. The conditions noted are these: source organism: Entamoeba histolytica HM-1:IMSS.
In experiment [31] the target is HLA-A*03:01. The conditions noted are these: source organism: Entamoeba histolytica HM-1:IMSS.
The target in experiment [32] is HLA-B*44:02. The following applies: source organism: Entamoeba histolytica HM-1:IMSS.
The target in experiment [33] is HLA-B*08:01. The conditions noted are these: source organism: Entamoeba histolytica HM-1:IMSS.
For experiment [34], the target named is HLA-B*40:01. The conditions noted are these: source organism: Entamoeba histolytica HM-1:IMSS.
[35] abbreviates: source organism: Escherichia coli O157:H7 str. Sakai.
Where [36] appears, read: source organism: Entamoeba histolytica HM-1:IMSS.

For the sequence HQIWLALRY, the Kd – broadly, the concentration at which binding is half-saturated – is at least 20 µM in [1] (setting [35]); at least 20 µM in experiment [2] (setting [35]); at least 20 µM in experiment [3] (setting [35]); 0.0016 µM in experiment [4] (setting [35]); at least 20 µM in [5] (setting [35]); at least 20 µM in experiment [6]. The Kd in experiment [7], in experiment [8], in experiment [9] (setting [35]), in experiment [10] (setting [35]), in [11] and in [12] (setting [35]) was at least 20 µM in each case. For the same sequence, the Kd is 0.0072 µM in experiment [13]; at least 20 µM in [14] (setting [35]); at least 20 µM in [15] (setting [35]); at least 20 µM in experiment [16] (setting [35]); at least 20 µM in experiment [17].

Turning to NPAACSYMV, the equilibrium dissociation constant (Kd) in [18] was at least 5 µM; in [1] (setting [36]), at least 20 µM; in experiment [19], at least 5 µM; in [20] it was at least 20 µM; in experiment [2] (setting [36]) it was at least 20 µM; in experiment [3] (setting [36]), at least 20 µM. Further, the Kd in experiment [4] (setting [36]) was 0.122 µM; in [5] (setting [36]) it was at least 20 µM; in experiment [21] it was at least 5 µM; in [22], at least 20 µM; in [23], at least 20 µM; in [24], at least 5 µM. Also, the Kd in experiment [25] is at least 20 µM; in experiment [26] it was at least 5 µM; in experiment [27], at least 5 µM; in [28] it was at least 5 µM; in experiment [9] (setting [36]) it was at least 20 µM; in [10] (setting [36]) it was at least 20 µM. In addition, the Kd was at least 5 µM in [29]; 0.0283 µM in experiment [12] (setting [36]); at least 5 µM in experiment [30]; at least 20 µM in experiment [31]; at least 20 µM in [14] (setting [36]); at least 5 µM in [32]. The Kd in experiment [15] (setting [36]) was 0.232 µM; in [16] (setting [36]), at least 20 µM; in experiment [33], at least 5 µM; in experiment [34], at least 5 µM.
